In patent US20140273151:

Target: T1, Substrate No. 19
T1 chain: DEVD

B1: caspase-3 enzyme (Biovision Inc., Mountain View, Calif.) (protein)
chain: SGISLDNSYKMDYPEMGLCIIINNKNFHKSTGMTSRSGTDVDAANLRETFRNLKYEVRNKNDLTREEIVELMRDVSKEDHSKRSSFVCVLLSHGEEGIIFGTNGPVDLKKITNFFRGDRCRSLTGKPKLFIIQACRGTELDCGIETDSGVDDDMACHKIPVEADFLYAYSTAPGYYSWRNSKDGSWFIQSLCAMLKQYADKLEFMHILTRVNRKVATEFESFSFDATFHAKKQIPCIVSMLTKELYFYH
In the case of B1, the “fluorescence signal over time (excitation 485 nm, emission 530 nm) in the presence of dsDNA; enzymatic cleavage assay” value is reported as “The data demonstrates that Substrate No. 19 is a substrate for caspase-3 enzyme”.
